Numbered stars: 1 amine (or outer) side, 2 acyl side, 3 side chain; on linkers, the order of the positions; unused ones are H or OH. Square brackets hold non-standard residues; d marks the D form. Side chains are listed from the residue outwards. Ends that are not written are not given here. * marks the point of attachment. C18 diacid = O=C(O)CCCCCCCCCCCCCCCCC(=O)*; γGlu = O=C(O)[C@H](CCC(=O)[*:2])N[*:1]; AEEA = NCCOCCOCC(=O)O; Aib = CC(C)(N)C(=O)O

For one assay, the target named is human GLP-1 receptor (human, UniProt P43220 24-463). Description: cell-based or functional assay.
A further assay has as its target human glucagon receptor (human, UniProt P47871 26-477). The assay is described as follows: cell-based or functional assay.

human glucagon receptor, sequence (P47871 26-477): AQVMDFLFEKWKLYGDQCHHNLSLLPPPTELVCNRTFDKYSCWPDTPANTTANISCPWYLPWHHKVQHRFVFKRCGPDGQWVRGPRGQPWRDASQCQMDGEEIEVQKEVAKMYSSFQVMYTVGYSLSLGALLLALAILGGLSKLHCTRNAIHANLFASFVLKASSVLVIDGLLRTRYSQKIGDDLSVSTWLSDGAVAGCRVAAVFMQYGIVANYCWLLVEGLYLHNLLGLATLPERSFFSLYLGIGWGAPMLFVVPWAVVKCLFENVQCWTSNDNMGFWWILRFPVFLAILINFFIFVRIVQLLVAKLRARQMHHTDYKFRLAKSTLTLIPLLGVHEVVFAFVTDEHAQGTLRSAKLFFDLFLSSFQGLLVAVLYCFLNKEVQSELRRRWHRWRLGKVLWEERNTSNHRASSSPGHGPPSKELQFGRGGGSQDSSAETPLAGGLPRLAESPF

B1: N^ε29-[(4S)-4-carboxy-4-[[(4S)-4-carboxy-4-[[2-[2-[2-[[2-[2-[2-[[(4S)-4-carboxy-4-(17-carboxyheptadecanoylamino)butanoyl]amino]ethoxy]ethoxy]acetyl]amino]ethoxy … (peptide)
peptide: H[Aib]QGTFTSDLSKYLDKRRAEDFVQWLLSK([γGlu-γGlu-AEEA-AEEA-γGlu-C18 diacid])-NH2
modifications: N-terminus assumed
SMILES: CC(C)C[C@H](NC(=O)[C@H](CC(C)C)NC(=O)[C@H](Cc1c[nH]c2ccccc12)NC(=O)[C@H](CCC(N)=O)NC(=O)[C@@H](NC(=O)[C@H](Cc1ccccc1)NC(=O)[C@H](CC(=O)O)NC(=O)[C@H](CCC(=O)O)NC(=O)[C@H](C)NC(=O)[C@H](CCCNC(=N)N)NC(=O)[C@H](CCCNC(=N)N)NC(=O)[C@H](CCCCN)NC(=O)[C@H](CC(=O)O)NC(=O)[C@H](CC(C)C)NC(=O)[C@H](Cc1ccc(O)cc1)NC(=O)[C@H](CCCCN)NC(=O)[C@H](CO)NC(=O)[C@H](CC(C)C)NC(=O)[C@H](CC(=O)O)NC(=O)[C@H](CO)NC(=O)[C@@H](NC(=O)[C@H](Cc1ccccc1)NC(=O)[C@@H](NC(=O)CNC(=O)[C@H](CCC(N)=O)NC(=O)C(C)(C)NC(=O)[C@@H](N)Cc1c[nH]cn1)[C@@H](C)O)[C@@H](C)O)C(C)C)C(=O)N[C@@H](CO)C(=O)N[C@@H](CCCCNC(=O)CC[C@H](NC(=O)CC[C@H](NC(=O)COCCOCCNC(=O)COCCOCCNC(=O)CC[C@H](NC(=O)CCCCCCCCCCCCCCCCC(=O)O)C(=O)O)C(=O)O)C(=O)O)C(N)=O
For B1, the “EC50 GLP-1R, CRE luciferase reporter gene assay in BHK cells” value (shortened to “EC50 GLP-1R”) in the assay with human GLP-1 receptor came out at 0.028 nM. Also, in the assay with human glucagon receptor, the “EC50 GlucR, CRE luciferase reporter gene assay in BHK cells” value (shortened to “EC50 GlucR”) is 0.599 nM.

B2: N^ε29-[(4S)-4-carboxy-4-[[(4S)-4-carboxy-4-[[2-[2-[2-[[2-[2-[2-[[(4S)-4-carboxy-4-(17-carboxyheptadecanoylamino)butanoyl]amino]ethoxy]ethoxy]acetyl]amino]ethoxy … (peptide)
peptide: H[Aib]QGTFTSDLSKYLDTRRAKDFVQWLLSK([γGlu-γGlu-AEEA-AEEA-γGlu-C18 diacid])-NH2
modifications: N-terminus assumed
SMILES: CC(C)C[C@H](NC(=O)[C@H](CC(C)C)NC(=O)[C@H](Cc1c[nH]c2ccccc12)NC(=O)[C@H](CCC(N)=O)NC(=O)[C@@H](NC(=O)[C@H](Cc1ccccc1)NC(=O)[C@H](CC(=O)O)NC(=O)[C@H](CCCCN)NC(=O)[C@H](C)NC(=O)[C@H](CCCNC(=N)N)NC(=O)[C@H](CCCNC(=N)N)NC(=O)[C@@H](NC(=O)[C@H](CC(=O)O)NC(=O)[C@H](CC(C)C)NC(=O)[C@H](Cc1ccc(O)cc1)NC(=O)[C@H](CCCCN)NC(=O)[C@H](CO)NC(=O)[C@H](CC(C)C)NC(=O)[C@H](CC(=O)O)NC(=O)[C@H](CO)NC(=O)[C@@H](NC(=O)[C@H](Cc1ccccc1)NC(=O)[C@@H](NC(=O)CNC(=O)[C@H](CCC(N)=O)NC(=O)C(C)(C)NC(=O)[C@@H](N)Cc1c[nH]cn1)[C@@H](C)O)[C@@H](C)O)[C@@H](C)O)C(C)C)C(=O)N[C@@H](CO)C(=O)N[C@@H](CCCCNC(=O)CC[C@H](NC(=O)CC[C@H](NC(=O)COCCOCCNC(=O)COCCOCCNC(=O)CC[C@H](NC(=O)CCCCCCCCCCCCCCCCC(=O)O)C(=O)O)C(=O)O)C(=O)O)C(N)=O
Turning to B2, in the assay with human GLP-1 receptor, the “EC50 GLP-1R” value stood at 0.015 nM. In the assay with human glucagon receptor, the “EC50 GlucR” value was 0.672 nM.

B3: N^ε29-[(4S)-4-carboxy-4-[[(4S)-4-carboxy-4-[[2-[2-[2-[[2-[2-[2-[[(4S)-4-carboxy-4-(17-carboxyheptadecanoylamino)butanoyl]amino]ethoxy]ethoxy]acetyl]amino]ethoxy … (peptide)
peptide: H[Aib]QGTFTSDLSKYLDTRRAQDFVRWLLSK([γGlu-γGlu-AEEA-AEEA-γGlu-C18 diacid])-NH2
modifications: N-terminus assumed
SMILES: CC(C)C[C@H](NC(=O)[C@H](CC(C)C)NC(=O)[C@H](Cc1c[nH]c2ccccc12)NC(=O)[C@H](CCCNC(=N)N)NC(=O)[C@@H](NC(=O)[C@H](Cc1ccccc1)NC(=O)[C@H](CC(=O)O)NC(=O)[C@H](CCC(N)=O)NC(=O)[C@H](C)NC(=O)[C@H](CCCNC(=N)N)NC(=O)[C@H](CCCNC(=N)N)NC(=O)[C@@H](NC(=O)[C@H](CC(=O)O)NC(=O)[C@H](CC(C)C)NC(=O)[C@H](Cc1ccc(O)cc1)NC(=O)[C@H](CCCCN)NC(=O)[C@H](CO)NC(=O)[C@H](CC(C)C)NC(=O)[C@H](CC(=O)O)NC(=O)[C@H](CO)NC(=O)[C@@H](NC(=O)[C@H](Cc1ccccc1)NC(=O)[C@@H](NC(=O)CNC(=O)[C@H](CCC(N)=O)NC(=O)C(C)(C)NC(=O)[C@@H](N)Cc1c[nH]cn1)[C@@H](C)O)[C@@H](C)O)[C@@H](C)O)C(C)C)C(=O)N[C@@H](CO)C(=O)N[C@@H](CCCCNC(=O)CC[C@H](NC(=O)CC[C@H](NC(=O)COCCOCCNC(=O)COCCOCCNC(=O)CC[C@H](NC(=O)CCCCCCCCCCCCCCCCC(=O)O)C(=O)O)C(=O)O)C(=O)O)C(N)=O
Consider B3, for which the “EC50 GLP-1R” value in the assay with human GLP-1 receptor amounted to 0.02 nM. For the same molecule, the “EC50 GlucR” value with human glucagon receptor was found to be 0.19 nM.

B4: N^ε29-[(4S)-4-carboxy-4-[[(4S)-4-carboxy-4-[[2-[2-[2-[[2-[2-[2-[[(4S)-4-carboxy-4-(17-carboxyheptadecanoylamino)butanoyl]amino]ethoxy]ethoxy]acetyl]amino]ethoxy … (peptide)
peptide: H[Aib]QGTFTSDLSKYLDERRAKDFVQWLLSK([γGlu-γGlu-AEEA-AEEA-γGlu-C18 diacid])-NH2
modifications: N-terminus assumed
SMILES: CC(C)C[C@H](NC(=O)[C@H](CC(C)C)NC(=O)[C@H](Cc1c[nH]c2ccccc12)NC(=O)[C@H](CCC(N)=O)NC(=O)[C@@H](NC(=O)[C@H](Cc1ccccc1)NC(=O)[C@H](CC(=O)O)NC(=O)[C@H](CCCCN)NC(=O)[C@H](C)NC(=O)[C@H](CCCNC(=N)N)NC(=O)[C@H](CCCNC(=N)N)NC(=O)[C@H](CCC(=O)O)NC(=O)[C@H](CC(=O)O)NC(=O)[C@H](CC(C)C)NC(=O)[C@H](Cc1ccc(O)cc1)NC(=O)[C@H](CCCCN)NC(=O)[C@H](CO)NC(=O)[C@H](CC(C)C)NC(=O)[C@H](CC(=O)O)NC(=O)[C@H](CO)NC(=O)[C@@H](NC(=O)[C@H](Cc1ccccc1)NC(=O)[C@@H](NC(=O)CNC(=O)[C@H](CCC(N)=O)NC(=O)C(C)(C)NC(=O)[C@@H](N)Cc1c[nH]cn1)[C@@H](C)O)[C@@H](C)O)C(C)C)C(=O)N[C@@H](CO)C(=O)N[C@@H](CCCCNC(=O)CC[C@H](NC(=O)CC[C@H](NC(=O)COCCOCCNC(=O)COCCOCCNC(=O)CC[C@H](NC(=O)CCCCCCCCCCCCCCCCC(=O)O)C(=O)O)C(=O)O)C(=O)O)C(N)=O
As to B4, in the assay with human GLP-1 receptor, the “EC50 GLP-1R” value is 0.006 nM. Also, the “EC50 GlucR” value with human glucagon receptor turned out to be 1.43 nM.

B5: N^ε21-(4S)-4-carboxy-4-[[(4S)-4-carboxy-4-[[2-[2-[2-[[2-[2-[2-[[(4S)-4-carboxy-4-(17-carboxyheptadecanoylamino)butanoyl]amino]ethoxy]ethoxy]acetyl]amino]ethoxy] … (peptide)
peptide: H[Aib]QGTFTSDLSKYLDSRRARK([γGlu-γGlu-AEEA-AEEA-γGlu-C18 diacid])FVQWLLST-NH2
modifications: N-terminus assumed
SMILES: CC(C)C[C@H](NC(=O)[C@H](Cc1ccc(O)cc1)NC(=O)[C@H](CCCCN)NC(=O)[C@H](CO)NC(=O)[C@H](CC(C)C)NC(=O)[C@H](CC(=O)O)NC(=O)[C@H](CO)NC(=O)[C@@H](NC(=O)[C@H](Cc1ccccc1)NC(=O)[C@@H](NC(=O)CNC(=O)[C@H](CCC(N)=O)NC(=O)C(C)(C)NC(=O)[C@@H](N)Cc1c[nH]cn1)[C@@H](C)O)[C@@H](C)O)C(=O)N[C@@H](CC(=O)O)C(=O)N[C@@H](CO)C(=O)N[C@@H](CCCNC(=N)N)C(=O)N[C@@H](CCCNC(=N)N)C(=O)N[C@@H](C)C(=O)N[C@@H](CCCNC(=N)N)C(=O)N[C@@H](CCCCNC(=O)CC[C@H](NC(=O)CC[C@H](NC(=O)COCCOCCNC(=O)COCCOCCNC(=O)CC[C@H](NC(=O)CCCCCCCCCCCCCCCCC(=O)O)C(=O)O)C(=O)O)C(=O)O)C(=O)N[C@@H](Cc1ccccc1)C(=O)N[C@H](C(=O)N[C@@H](CCC(N)=O)C(=O)N[C@@H](Cc1c[nH]c2ccccc12)C(=O)N[C@@H](CC(C)C)C(=O)N[C@@H](CC(C)C)C(=O)N[C@@H](CO)C(=O)N[C@H](C(N)=O)[C@@H](C)O)C(C)C
For B5, the “EC50 GLP-1R” value in the assay with human GLP-1 receptor was 0.044 nM. The “EC50 GlucR” value with human glucagon receptor worked out at 0.097 nM.

The record behind these values is patent publication US20150374794A1 (Novo Nordisk, published 2015).
